# “Also recorded” adds a separate entry of the source. Like-named read-outs stand apart in the source and are kept apart here.
# Experiments:
# [1] = tissue kinetics in tumor tissue after injecting; type: in vivo; conditions: for half-life: in tumor tissue, read-out: tissue-efflux half-life
# [2] = optical properties of dye (absorption, emission, quantum yield); type: physicochemical; conditions: for absorption maxima (wavelength): solvent not stated; for Quantum yield φ: ICG as standard
# Description: The increased fluorescence quantum yield of the hydrophilic derivatives reduces the risk of the forming fluorescence-quenched aggregation. […] Thus the conjugate can be used for tagging estradiol because of its ability to form monoderivatized activated precursors as it has a carboxylic group which can be tailored to attach to functional groups of biomoloecules like estradiol.
# The excitation and emission peaks for the conjugate are recorded in the NIR region as 757 nm and 788 nm respectively. The potential of the compound in the application as contrast agents for fluorescence imaging modalities, where the fluorescence emission of the dye is expected to be detectable in high sensitivity above low tissue background is analysed on the breast cancer cell lines MCF-7/MDA-MB-231.
# MCF-7 [ER+] cells = test: NIRF staining / confocal laser microscopy of MCF-7 cells; type: cell-based, Human; conditions: for cellular localisation / binding of fluorescence: MCF-7 (ER+), confocal microscopy, 1 μM
# Description: (§1) Human breast cancer cell lines MCF-7 [ER+] and MDA-MB-231 [ER-] are obtained from National Centre for Cell science (NCCS (Pune)). The cells are cultured, revived and the experiments are carried out at Advanced Centre for Treatment, Research and Education in Cancer (ACTREC) of Tata Memorial Centre (Mumbai).
# (§2) MCF-7 and MDA-MB-231 cells are cultured in DMEM/F12 medium without phenol red (ACTREC, Mumbai) supplemented with 10% fetal bovine serum. Cells in suspension (50 μl) are added to each well of a 96-well culture plate for a final concentration of 1×10^3 Cells/well and incubated for 24 h at 37° C. in carbon dioxide chamber.
# The NIRFDC with initial concentration of 24.5 mg/2 ml of DMSO solution is added to each well, and the cultures further incubated for 2 h. The cells are treated at different concentration levels of 1:10, 1:50, 1:100, 1:500 and 1:1000 of DMSO. The cells were then re-suspended in 100 μl of 0.04N HCl/isopropanol solution.
# Cell smears are prepared by rolling the swab across the top half of the well of a microscope slide. The opposite side of the swab is rolled over the bottom half of the well. There after the slide is allowed to air dry completely. Then the slide is fixed in chilled (2° to 8° C.) acetone for 10 minutes, which is further removed and allowed to air dry completely. Slides are stored at ≤−20° C. with desiccant. On completion, the cells are re-suspend to at least 400 μL in phosphate buffered saline and 200 μL is applied to each slide by cento-centrifugation at 800 rpm for 4 minutes [Br. J Cancer. 58:77-80, (1988)]. This procedure is repeated for fixing both the cell lines.
# The smears are stained with the conjugate at different dilutions of 1:10, 1:50, 1:100, 1:500 and 1:1000 and incubated for an hour at about 25° C. Thereafter these cells are given 3 washes of phosphate buffered saline, mounted with DPX (Distrene Plasticyser Xylene) covered and imaged using the Olympus Confocal microscope.
# MCF-7 cells maintained at 37° C. in a 5% CO2 atmosphere in phenol red-free minimal essential medium (MEM) containing 10% charcoal stripped calf serum and penicillin, streptomycin, glutamine, are incubated for 4 days in 24 multiwells (NUNC). After 4 days of culture, the medium is removed and the cells are incubated for 1 hour at 37° C. with […] at concentrations ranging from 0.3 nM to 1 nM. Medium is removed and the cells are washed twice with phosphate buffer saline (PBS). 250 μl of absolute ethanol is added to each well (exposition during 20 min).
# The in-vitro studies are carried out using the inverted lens Olympus Fluo-View Confocal Microscope. The sample is excited at 754 nm and the emissions are observed using PMT having relatively higher quantum efficiency in the NIR-region.
# (§3) These cells retained several characteristics of differentiated mammary epithelium including ability to process estradiol via Nuclear and cytoplasmic estrogen receptors and the capability of forming domes. MBA-MB-231 breast cancer cell lines are used as the control. […] The nuclear staining is pivotal towards early detection of cancer as 80% of the breast cancer reported are ER+ and could be detected by this characteristic feature. […]
# In-vitro fluorescence signal of malignant cells bearing estrogen receptor positive with the control (cells without intracellular estrogen receptors) are studied. Fluorescence intensity generated by the NIRF Dye-Conjugate in particular to the nucleus and the entire cell is plotted as shown in the (FIG. 6 A, B). […]
# [3] = ICG as standard; cited from earlier work
# MCF-7 cells = test: inhibition of nuclear entry of estrogen conjugated dye in MCF-7 cells; type: cell-based, Human
# Description: The estrogenic activity is examined using human mammary carcinoma MCF-7 cells. The cells are cultured with various concentrations of Diethylstilbestrol (DES) and estrogen conjugated dye for more than 5 days and then the cells were counted.
# A very clear distinction on non-specific binding is observed and the binding is only seen in the cytoplasm.
# plasma protein binding = type: in vitro ADME
# [4] = partition coefficient studies; type: physicochemical
# cell lines = test: toxic effect on the cell lines; type: cell-based; conditions: glucosammonium ion in place of sodium ion
# [5] = biological target: T1, Estrogen receptor (ER) in human breast cancer tissues (Homo sapiens, UniProt P03372); test: ER staining of breast carcinoma tissue sections; conditions: Non-invasive Ductal, Lobular, Adenocarcinoma and Medullary Carcinoma
# T1 construct: from tissue; host or cells: human breast carcinoma tumor tissue, formalin-fixed paraffin sections
# T1 sequence (P03372 whole entry): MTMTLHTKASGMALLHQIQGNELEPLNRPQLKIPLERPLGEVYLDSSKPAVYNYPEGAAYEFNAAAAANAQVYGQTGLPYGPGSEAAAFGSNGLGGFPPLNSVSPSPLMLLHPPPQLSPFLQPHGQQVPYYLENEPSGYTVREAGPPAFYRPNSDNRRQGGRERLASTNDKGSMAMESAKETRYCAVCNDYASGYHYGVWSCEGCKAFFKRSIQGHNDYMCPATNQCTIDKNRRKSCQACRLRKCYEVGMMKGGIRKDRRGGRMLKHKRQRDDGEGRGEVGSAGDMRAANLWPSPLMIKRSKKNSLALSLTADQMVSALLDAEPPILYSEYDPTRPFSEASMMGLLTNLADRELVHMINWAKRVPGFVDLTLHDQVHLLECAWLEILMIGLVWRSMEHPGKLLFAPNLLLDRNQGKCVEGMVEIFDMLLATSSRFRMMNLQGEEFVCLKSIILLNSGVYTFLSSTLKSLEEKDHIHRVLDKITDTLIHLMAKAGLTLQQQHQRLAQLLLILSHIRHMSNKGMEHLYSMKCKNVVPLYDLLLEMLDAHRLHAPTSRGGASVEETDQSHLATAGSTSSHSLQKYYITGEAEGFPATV
# Description: The avidin-biotin-peroxidase complex method is used for the paraffin sections fixed in cold buffered formalin and the results are compared with the ER content in the respective tumor tissue. The specific staining for ER is located exclusively in the nuclei of cancer cells in paraffin sections.
# The tumor pieces are fixed in buffered formalin (0.1 M sodium phosphate, pH 7.4/10% formalin) for 24 hr at […]. After being rinsed overnight at […]. in 0.1 M sodium phosphate (pH 7.4), they are dehydrated with graded ethanol and embedded in paraffin. Paraffin sections (4 μm) are cut, deparaffinized with xylene, and rinsed thoroughly with absolute ethanol. Then they are soaked in absolute methanol containing 0.3% H2O2 for 30 min at 25° C. to decrease the endogenous peroxidase activity. The sections were washed three times with 50 mM Tris-HCl, pH 7.6/137 mM NaCl (Tris/NaCl) and were incubated with serum (10% in Tris/NaCl) for 30 min at 25° C. so as to reduce the nonspecific staining. Excess serum is removed by blotting. I˜g/ml) or with normal rat IgG (10 A·g/ml) for 30 min at 37° C. After being washed with Tris/NaCl. […]
# MDA-MB-231 [ER-] cells = test: NIRF staining / confocal laser microscopy of MDA-MB-231 control cells; type: cell-based, Human; conditions: 1 μM
# Description: as §1
# as §2, with “chamber. […]” for “chamber.”
# as §3, with “domes.” for “domes. MBA-MB-231 breast cancer cell lines are used as the control.”
# The cell lines are not controlled by the estrogen and lack the estrogen activity in the nucleus. After additional incubation under conditions permitting membrane traffic and thus endocytosis, fast and thorough internalization of ligand-receptor complexes into an intracellular compartment could be detected. […]
smiles,measurement,setting,value
"CC1(C)C(/C=C/C=C/C=C/C=C2\N(CCCCS(=O)(=O)O)c3ccc4ccccc4c3C2(C)C)=[N+](CCCCS(=O)(=O)[O-])c2ccc3ccccc3c21 [ICG, Indocyanine Green, reference compound]",half-life,[1]; other: injection (type not specified),< 0.167 h
same,absorption maxima (wavelength),[2],780
same,cellular localisation / binding of fluorescence,MCF-7 [ER+] cells,only stains the cells without entering the nucleus of the cell
same,quantum yield φ of the standard,[3],0.13
CC/C(=C(/CC)c1ccc(O)cc1)c1ccc(O)cc1 [Diethylstilbestrol],blocking of entry of the estradiol conjugate into the nucleus,MCF-7 cells,inhibited the entry of the estradiol into the nucleus
same,blocking of entry of the estradiol conjugate into the nucleus,MCF-7 cells; listed as DES,blocking operation of the estrogen conjugated dye from entering the nucleus
CC/C(=C(\c1ccccc1)c1ccc(OCCN(C)C)cc1)c1ccccc1 [Tamoxifen],blocking of entry of the estradiol conjugate into the nucleus,MCF-7 cells,inhibited the entry of the estradiol into the nucleus; also recorded: blocking operation of the estrogen conjugated dye entering the nucleus
CC1(C)C(/C=C/C=C/C=C/C=C2\N(CCCCS(=O)(=O)O)c3ccc(C(=O)Oc4ccc5c(c4)CCC4C5CC[C@@]5(C)C4CC[C@@H]5O)cc3C2(C)C)=[N+](CCCCS(=O)(=O)[O-])c2ccc(C(=O)Oc3ccc4c(c3)CCC3C4CC[C@@]4(C)C3CC[C@@H]4O)cc21 (stereo partly drawn) [conjugate],fraction unbound,plasma protein binding,> 0.5
same,initial tissue absorption coefficient compared to ICG,[1]; in vivo,two-fold higher
same,half-life,[1]; other: injection (kind of injection not stated),1.22 h
same,tumor-to-tissue concentration gradient,[1]; up to one hour after injecting,elevated tumor-to-tissue concentration gradient for up to one hour after injecting
same,Stokes' shift of fluorescence maximum,[2],38 nm
same,Strokes' shift,[2]; DMSO,30
same,λmax absorption,[2]; DMSO,757 nm
same,λmax emission,[2]; DMSO,787 nm
same,Quantum yield φ,[2]; DMSO,0.114
same,emission peak,[2]; NIR region,788 nm
same,excitation peak,[2]; NIR region,757 nm
same,Strokes' shift,[2]; PBS,33
same,λmax absorption,[2]; PBS,755 nm
same,λmax emission,[2]; PBS,788 nm
same,Quantum yield φ,[2]; PBS,0.110
same,enhancement of fluorescence quantum yields with respect to ICG,[2]; physiological environment,7-15%
same,absorption maxima (wavelength),[2],757
same,partition coefficient,[4],less than 0.005
same,toxic effect on the cell lines,cell lines,reduce the toxic effect on the cell lines
same,signal intensity of MCF-7 cells compared to MDA-MB-231,MCF-7 [ER+] cells; 24 h,~2.4 fold
same,cellular localisation / binding of fluorescence,MCF-7 [ER+] cells,specific high affinity binding sites of estrogen molecule on to the nucleus and membrane
same,cellular localisation / binding of fluorescence,MCF-7 [ER+] cells; listed as NIRFD-conjugate,majority of the receptor-associated fluorescence co-localized at the Nucleus and a minority in the plasma membrane
same,cellular localisation / binding of fluorescence,MCF-7 [ER+] cells; listed as NIRFDC,very clear localization of conjugated dye in the nucleus; also recorded: significant amount of binding is seen in the nucleus
same,ER staining of carcinoma tissue,[5],ER staining which are confined to the nuclei
same,cellular localisation / binding of fluorescence,MDA-MB-231 [ER-] cells,only the plasma membrane staining
same,cellular localisation / binding of fluorescence,MDA-MB-231 [ER-] cells; listed as NIRFDC,poor binding of conjugate into the nucleus

# — US10054602B2, “Conjugate of estradiol and applications thereof” (CHRIST UNIVERSITY, priority 2016, dated 2018)
